Results: article PMC5107993, “Glutathione-conjugating and membrane-remodeling activity of GDAP1 relies on amphipathic C-terminal domain” (Scientific Reports, 2016)

Target: the molecule itself
Assay: SEC; Superdex 200 10/300 in 20 mM Tris pH 8.0, 100 mM NaCl, 1 mM DTT, 1 mM EDTA; peak fractions re-chromatographed under identical conditions; monomer to dimer

B1: GDAP1 T318X-6xHis (domain or fragment, human, UniProt Q8TB36 1-317, looked up)
chain: MAERQEEQRGSPPLRAEGKADAEVKLILYHWTHSFSSQKVRLVIAEKALKCEEHDVSLPLSEHNEPWFMRLNSTGEVPVLIHGENIICEATQIIDYLEQTFLDERTPRLMPDKESMYYPRVQHYRELLDSLPMDAYTHGCILHPELTVDSMIPAYATTRIRSQIGNTESELKKLAEENPDLQEAYIAKQKRLKSKLLDHDNVKYLKKILDELEKVLDQVETELQRRNEETPEEGQQPWLCGESFTLADVSLAVTLHRLKFLGFARRNWGNGKRPNLETYYERVLKRKTFNKVLGHVNNILISAVLPTAFRVAKKRAP
notes: GDAP1, human (recombinant human GDAP1), truncated by a stop in place of T318 (T318X), lacks the TMD, keeps HD1; cloned into vector pFL of the MultiBac system; the methods print the name as T3188X; also called GDAP1 T3188X; not shown: His6, C-terminal, kept
stoichiometry N: 2

B2: GDAP1 T288X-6xHis (domain or fragment, human, UniProt Q8TB36 1-287, looked up)
chain: MAERQEEQRGSPPLRAEGKADAEVKLILYHWTHSFSSQKVRLVIAEKALKCEEHDVSLPLSEHNEPWFMRLNSTGEVPVLIHGENIICEATQIIDYLEQTFLDERTPRLMPDKESMYYPRVQHYRELLDSLPMDAYTHGCILHPELTVDSMIPAYATTRIRSQIGNTESELKKLAEENPDLQEAYIAKQKRLKSKLLDHDNVKYLKKILDELEKVLDQVETELQRRNEETPEEGQQPWLCGESFTLADVSLAVTLHRLKFLGFARRNWGNGKRPNLETYYERVLKRK
notes: GDAP1, human (recombinant human GDAP1), truncated by a stop in place of T288 (T288X), lacks TMD and HD1; cloned into vector pFL of the MultiBac system; not shown: His6, C-terminal, kept
stoichiometry N: 2
